{"source": "patent US20090197797A1", "about": "“USE OF HYALURONIC ACID AS A CARRIER MOLECULE FOR DIFFERENT CLASSES OF THERAPEUTIC ACTIVE AGENTS” (priority 2006, published 2009)", "assay": "storage stability of HA-6-MTX checked by repeated NMR spectrum", "format": "physicochemical", "details": "3-months storage at room temperature; compared with freshly prepared product", "description": "A solution of HA-OMs:TBA salt from Example 10 (500 mg; 0.73 mmol) in DMSO (15 ml) was treated with a solution of methotrexate (833 mg; 1.83 mmol) in DMSO (10 ml) in the presence of solid cesium carbonate (596 mg; 1.83 mmol). The mixture was stirred under nitrogen at 80° C. for 18 h, whereupon it darkened with formation of solids. It was then cooled to ambient temperature, poured into 100 ml of water (pH 6.5), treated with 15 ml of saturated NaCl solution, and stirred for 1.5 h. Then solids were filtered off and the solution was ultrafiltered, concentrated and freeze-dried to give 131 mg of a yellow-brownish solid. […] HPLC analysis gave 32% w/w, corresponding to 40% mol/mol."}
{"substance": "6-O-Methotrexylhyaluronic Acid [Example 24]", "values": [{"measurement": "NMR spectrum repeated on the same sample after storage (stability of substitution degree)", "result": "the substitution degree is maintained and no by-products are formed"}]}
